Measured values taken from PMC6765145.
Where two headings read alike, the source gives them in different places.

Key:
Test in all cases: EMSA
Aca2 [1] = target: T1, Aca2 (Pectobacterium carotovorum temperate …, UniProt H9C180 1-116)
T1 sequence: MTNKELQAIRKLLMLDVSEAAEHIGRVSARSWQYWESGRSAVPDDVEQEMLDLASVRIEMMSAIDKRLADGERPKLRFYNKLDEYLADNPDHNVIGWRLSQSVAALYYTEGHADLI

Aca2 [2] = target: T1, Aca2; remark: listed apart in the source
Aca2 [3] = target: T1, Aca2; remark: listed apart in the source

B1: wtIR1-scIR2 promoter probe (dsDNA)
DNA 1: CACGAATGCGGCCTTAGCGATTAAAAAATATGAAATGCCTTGCTTGTTCGCGATTGCGAACATATAATTTATTCATCGGAGACTACTGCAGGTCTTCGCTCCTAACGAGGATTCCACAATGC
DNA 2: GCATTGTGGAATCCTCGTTAGGAGCGAAGACCTGCAGTAGTCTCCGATGAATAAATTATATGTTCGCAATCGCGAACAAGCAAGGCATTTCATATTTTTTAATCGCTAAGGCCGCATTCGTG
Kd (Aca2 [1]): 1.07 nM

B2: scIR1-wtIR2 promoter probe (dsDNA)
DNA 1: CACGAATGCGGCCTTAGCGATTAAAAAATATGAAATGCCTTGCTTGAGACACGAGAGTCTCATATAATTTATTCATCGGTTCGAGATGGCTCGAATCGCTCCTAACGAGGATTCCACAATGC
DNA 2: GCATTGTGGAATCCTCGTTAGGAGCGATTCGAGCCATCTCGAACCGATGAATAAATTATATGAGACTCTCGTGTCTCAAGCAAGGCATTTCATATTTTTTAATCGCTAAGGCCGCATTCGTG
binding result (Aca2 [2]): no binding

B3: scIR1-scIR2 promoter probe (dsDNA)
DNA 1: CACGAATGCGGCCTTAGCGATTAAAAAATATGAAATGCCTTGCTTGAGACACGAGAGTCTCATATAATTTATTCATCGGAGACTACTGCAGGTCTTCGCTCCTAACGAGGATTCCACAATGC
DNA 2: GCATTGTGGAATCCTCGTTAGGAGCGAAGACCTGCAGTAGTCTCCGATGAATAAATTATATGAGACTCTCGTGTCTCAAGCAAGGCATTTCATATTTTTTAATCGCTAAGGCCGCATTCGTG
binding result (Aca2 [3]): no binding
